Patent US11325966

Legend:
Test in all cases: cell-based or functional assay
[1] = biological target: HIV-1 Env of pseudovirus BG505/T332N (HIV-1)
[2] = biological target: HIV-1 YU2 Env N280Y, on pseudovirus (HIV-1) (UniProt P35961)
[3] = biological target: HIV-1 envelope (Env) of pseudovirus PVO.4 (HIV-1)
[4] = biological target: HIV-1 envelope (Env) of pseudovirus TRJO4551.58 (HIV-1)
[5] = biological target: HIV-1 envelope (Env) of pseudovirus T250-4 (HIV-1)
[6] = biological target: HIV-1 envelope (Env) of pseudovirus Du172.17 (HIV-1)
[7] = biological target: HIV-1 envelope (Env) of pseudovirus Du156.12 (HIV-1)
[8] = biological target: HIV-1 envelope (Env) of pseudovirus Du422.1 (HIV-1)
[9] = biological target: HIV-1 envelope (Env) of pseudovirus 6244_13_B5_4576 (HIV-1)
[10] = biological target: HIV-1 envelope (Env) of pseudovirus 6545.v4.c1 (HIV-1)
[11] = biological target: HIV-1 envelope (Env) of pseudovirus CNE8 (HIV-1)
[12] = biological target: HIV-1 envelope (Env) of pseudovirus X2131_C1_B5 (HIV-1)
[13] = biological target: HIV-1 envelope (Env) of pseudovirus YU2_N280Y (HIV-1) (UniProt P35961)
[14] = biological target: HIV-1 envelope (Env) of pseudovirus 231966.c02 (HIV-1)
[15] = biological target: HIV-1 envelope (Env) of pseudovirus 928-28 (HIV-1)
[16] = biological target: HIV-1 envelope (Env) of pseudovirus 6041.v3.c23 (HIV-1)
[17] = biological target: HIV-1 envelope (Env) of pseudovirus T251-18 (HIV-1)
[18] = biological target: HIV-1 envelope (Env) of pseudovirus HIV-001428-2.42 (HIV-1)
[19] = biological target: HIV-1 envelope (Env) of pseudovirus CNE21 (HIV-1)
[20] = biological target: HIV-1 envelope (Env) of pseudovirus Ce2060_G9 (HIV-1)
JR-CSF N301A (HIV-1) = JR-CSF N301A (HIV-1) (UniProt P20871)
[21] = biological target: HIV-1 Env of pseudovirus X1193_c1 (HIV-1)
[22] = biological target: HIV-1 Env of pseudovirus RHPA4259.7 (HIV-1)
[23] = biological target: HIV-1 Env of pseudovirus 0815.v3.c3 (HIV-1)
[24] = biological target: HIV-1 Env of pseudovirus MS208.A1 (HIV-1)
[25] = biological target: HIV-1 Env of pseudovirus 3817.v2.c59 (HIV-1)
[26] = biological target: HIV-1 Env of pseudovirus P0402_c2_11 (HIV-1)
[27] = biological target: HIV-1 Env of pseudovirus Q259.d2.17 (HIV-1)
[28] = biological target: HIV-1 Env of pseudovirus REJO4541.67 (HIV-1)
[29] = biological target: HIV-1 Env of pseudovirus Ce1172_H1 (HIV-1)
[30] = biological target: HIV-1 Env of pseudovirus Q769.d22 (HIV-1)
[31] = biological target: HIV-1 Env of pseudovirus WEAU_d15_410_787 (HIV-1)
[32] = biological target: HIV-1 Env of pseudovirus ZM233M.PB6 (HIV-1)
[33] = biological target: HIV-1 Env of pseudovirus 6480.v4.c25 (HIV-1)
[34] = biological target: HIV-1 Env of pseudovirus T251-18 (HIV-1)
[35] = biological target: HIV-1 Env of pseudovirus 6540.v4.c1 (HIV-1)
[36] = biological target: HIV-1 Env of pseudovirus 249M B10 (HIV-1)
[37] = biological target: HIV-1 Env of pseudovirus CNE30 (HIV-1)
[38] = biological target: HIV-1 Env of pseudovirus HIV-001428-2.42 (HIV-1)

Molecule: BG18 IgG (354BG18) (antibody)
- IC50 in TZM-bl assay [1]: < 0.0001 µg/mL
- IC80 in TZM-bl assay [1]: 0.002 µg/mL
- IC50 in TZM-bl assay [2]: 0.005 µg/mL
- IC80 in TZM-bl assay [2]: 0.016 µg/mL

Molecule: BG1 (antibody)
- IC50 in TZM-bl assay [3]: > 30 µg/mL
- IC80 in TZM-bl assay [3]: > 30 µg/mL
- IC50 in TZM-bl assay [4]: > 30 µg/mL
- IC80 in TZM-bl assay [4]: > 30 µg/mL
- IC50 in TZM-bl assay [5]: 3.92 µg/mL
- IC80 in TZM-bl assay [5]: > 30 µg/mL
- IC50 in TZM-bl assay [6]: > 30 µg/mL
- IC80 in TZM-bl assay [6]: > 30 µg/mL
- IC50 in TZM-bl assay [7]: 1.52 µg/mL
- IC80 in TZM-bl assay [7]: 6.03 µg/mL
- IC50 in TZM-bl assay [8]: 1.8 µg/mL
- IC80 in TZM-bl assay [8]: 13.7 µg/mL
- IC50 in TZM-bl assay [9]: > 30 µg/mL
- IC80 in TZM-bl assay [9]: > 30 µg/mL
- IC50 in TZM-bl assay [10]: > 30 µg/mL
- IC80 in TZM-bl assay [10]: > 30 µg/mL
- IC50 in TZM-bl assay [11]: > 30 µg/mL
- IC80 in TZM-bl assay [11]: > 30 µg/mL
- IC50 in TZM-bl assay [12]: 0.116 µg/mL
- IC80 in TZM-bl assay [12]: 0.313 µg/mL
- IC50 in TZM-bl assay [13]: 9 µg/mL
- IC80 in TZM-bl assay [13]: 23 µg/mL
- IC50 in TZM-bl assay [14]: > 30 µg/mL
- IC80 in TZM-bl assay [14]: > 30 µg/mL
- IC50 in TZM-bl assay [15]: > 30 µg/mL
- IC80 in TZM-bl assay [15]: > 30 µg/mL
- IC50 in TZM-bl assay [16]: 6.75 µg/mL
- IC80 in TZM-bl assay [16]: 16.6 µg/mL
- IC50 in TZM-bl assay [17]: 3.59 µg/mL
- IC80 in TZM-bl assay [17]: 18 µg/mL
- IC50 in TZM-bl assay [18]: 1.09 µg/mL
- IC80 in TZM-bl assay [18]: 3.12 µg/mL
- IC50 in TZM-bl assay [19]: > 30 µg/mL
- IC80 in TZM-bl assay [19]: > 30 µg/mL
- IC50 in TZM-bl assay [20]: > 30 µg/mL
- IC80 in TZM-bl assay [20]: > 30 µg/mL

Molecule: 354BG8 (antibody)
- IC50 in TZM-bl assay (JR-CSF N301A (HIV-1)): 0.006 µg/mL

B1: 10-1074 (antibody, V domains shown)
VH: QVQLQESGPGLVKPSETLSVTCSVSGDSMNNYYWTWIRQSPGKGLEWIGYISDRESATYNPSLNSRVVISRDTSKNQLSLKLNSVTPADTAVYYCATARRGQRIYGVVSFGEFFYYYSMDVWGKGTTVTVSS
VL: SYVRPLSVALGETARISCGRQALGSRAVQWYQHRPGQAPILLIYNNQDRPSGIPERFSGTPDINFGTRATLTISGVEAGDEADYYCHMWDSRSGFSWSFGGATRLTVL
- IC50 in TZM-bl assay [21]: 0.07 µg/mL
- IC80 in TZM-bl assay [21]: 0.207 µg/mL
- IC50 in TZM-bl assay [22]: 0.023 µg/mL
- IC80 in TZM-bl assay [22]: 0.083 µg/mL
- IC50 in TZM-bl assay [23]: 0.043 µg/mL
- IC80 in TZM-bl assay [23]: 0.197 µg/mL
- IC50 in TZM-bl assay [24]: > 10 µg/mL
- IC80 in TZM-bl assay [24]: > 10 µg/mL
- IC50 in TZM-bl assay [25]: 0.706 µg/mL
- IC80 in TZM-bl assay [25]: 4.49 µg/mL
- IC50 in TZM-bl assay [26]: 0.008 µg/mL
- IC80 in TZM-bl assay [26]: 0.024 µg/mL
- IC50 in TZM-bl assay [27]: > 10 µg/mL
- IC80 in TZM-bl assay [27]: > 10 µg/mL
- IC50 in TZM-bl assay [28]: > 10 µg/mL
- IC80 in TZM-bl assay [28]: > 10 µg/mL
- IC50 in TZM-bl assay [29]: 0.019 µg/mL
- IC80 in TZM-bl assay [29]: 0.083 µg/mL
- IC50 in TZM-bl assay [30]: > 10 µg/mL
- IC80 in TZM-bl assay [30]: > 10 µg/mL
- IC50 in TZM-bl assay [31]: 0.031 µg/mL
- IC80 in TZM-bl assay [31]: 0.112 µg/mL
- IC50 in TZM-bl assay [32]: 0.058 µg/mL
- IC80 in TZM-bl assay [32]: 0.371 µg/mL
- IC50 in TZM-bl assay [33]: 0.006 µg/mL
- IC80 in TZM-bl assay [33]: 0.023 µg/mL
- IC50 in TZM-bl assay [34]: 0.399 µg/mL
- IC80 in TZM-bl assay [34]: 2.29 µg/mL
- IC50 in TZM-bl assay [35]: > 10 µg/mL
- IC80 in TZM-bl assay [35]: > 10 µg/mL
- IC50 in TZM-bl assay [36]: > 10 µg/mL
- IC80 in TZM-bl assay [36]: > 10 µg/mL
- IC50 in TZM-bl assay [37]: 0.261 µg/mL
- IC80 in TZM-bl assay [37]: 0.678 µg/mL
- IC50 in TZM-bl assay [38]: 0.035 µg/mL
- IC80 in TZM-bl assay [38]: 0.126 µg/mL
